The source of these data is patent US9897611B2, “Molecule library constructed on the basis of backbone structure of microprotein” (NATIONAL INSTITUTE OF ADVANCED INDUSTRIAL SCIENCE AND …, priority 2012, dated 2018).

One may read the Kd as the equilibrium constant for the complex coming apart.

In one assay the target is T1, human IgG Fc region (Homo sapiens, UniProt P01857).
T1 construct: The Fc region was prepared by the papain digestion of a human monoclonal antibody IgG
Put plainly: SPR binding affinity analysis on immobilized Fc region prepared by papain digestion of human monoclonal IgG. (SPR reads the build-up and loss of mass on a sensor chip optically.)

In assay [1] the test system is human Fc region manufactured by Jackson ImmunoResearch Laboratories, Inc. The assay can be described thus: SPR binding affinity analysis, peptide as analyte on immobilized human Fc region (Jackson ImmunoResearch).
From the text: A human Fc region manufactured by Jackson ImmunoResearch Laboratories, Inc. was immobilized onto a sensor chip CM5 (GE Healthcare Japan Corp.) by the amine coupling method using Amine Coupling Kit (GE Healthcare Japan Corp.).
The mark [2] stands for this setting: analyte on Fc region immobilized on CM5, HBS-T, 25° C., read-out: equilibrium dissociation constant KD.
Where [3] appears, read: alanine variants of p17_2, Fc region immobilized on CM5, read-out: KD (nM), binding dissociation constant of p17_2 variant.

Where two headings read alike, the source gives them in different places. Ends that are not written are not given here.

Method for human IgG Fc region: The Fc region was prepared by the papain digestion of a human monoclonal antibody IgG (Chugai Pharmaceutical Co., Ltd.) according to the instruction manual attached to Pierce® Fab Preparation Kit (Thermo Fisher Scientific Inc. Pierce) followed by purification by affinity chromatography using MabSelect SuRe (GE Healthcare Japan Corp.), HiTrap DEAE anion-exchange chromatography (GE Healthcare Japan Corp.), and gel filtration chromatography using Superdex 200 (GE Healthcare Japan Corp.).
The Fc region prepared in the section 1) of Example 2 was immobilized onto a sensor chip CM5 (GE Healthcare Japan Corp.) by the amine coupling method.
Subsequently, an example of binding affinity analysis by the surface plasmon resonance method is shown as to the functions of the thioredoxin fusion proteins with the prepared polypeptides. The analysis apparatus used was Biacore T100 (GE Healthcare Japan Corp.). […] The data was processed with Biacore T100 Evaluation Software (GE Healthcare Japan Corp.).
The assay employed Biacore T100 (GE Healthcare Japan Corp.).
Subsequently, the prepared 5 types of polypeptides were analyzed for their binding affinity by surface plasmon resonance. The assay employed Biacore T100 (GE Healthcare Japan Corp.).

For “DAAWHLGELVWAT [FcIII-Ala peptide, reference compound]”, the dissociation constant Kd on human IgG Fc region (Fc region immobilized on CM5, 0.78-100 μM peptide, read-out: equilibrium dissociation constant KD by Scatchard plot using equilibrium value) worked out at 42000 nM.

With “DAAWHLGELVWATYYDPETGTWLPDWQTMAQK [pep21 peptide]”, the “improvement in affinity compared with FcIII-Ala peptide” value at human IgG Fc region is listed as “approximately 420 fold”. As for “DAAWHLGELVWATYYDPETGTWQPDWLYMTTR [pep14 peptide]”, the equilibrium dissociation constant (Kd) at human IgG Fc region (setting [2]) was determined as 120 nM.

Regarding “GVVRQWSGGGGSGGGGRSSIAYGGG [2A1Gly peptide, 2A1 peptide with the chignolin variant region replaced by a glycine-rich linker]”, the “binding affinity relative to that of the 2A1 peptide” value in assay [1] (chignolin variant region replaced with glycine-rich linker) is reported as 1/1000. Besides, the dissociation constant Kd in assay [1] (peptide analyte, Fc immobilized on sensor chip CM5, HBS-T pH 7.4, 25° C., read-out: equilibrium dissociation constant KD) is 23000 nM. For the substance “p17_2: SEQ ID NO: 47; 54 residues, p17 with Gly, Pro, Gly at the N terminus, from protease cleavage of thioredoxin fusion (GPGISAFSPGRGVYDPETGTWYDAAWHLGELVWATYYDPETGTWEPDWQRMLGQ; Selected sequence, p17_2)”, in the assay with human IgG Fc region, the “improvement in affinity compared with FcIII-Ala peptide” value is listed as “approximately 26000 fold” and the “improvement in binding affinity compared with pep24 peptide” value is reported as 138 fold. In addition, the Kd with human IgG Fc region (setting [2]) was 1.6 nM.

For the substance “p17_D47A: alanine variant of p17_2 polypeptide, SEQ ID NO: 61 (GPGISAFSPGRGVYDPETGTWYDAAWHLGELVWATYYDPETGTWEPAWQRMLGQ; Selected sequence, p17_D47A)”, the equilibrium dissociation constant (Kd) in the assay with human IgG Fc region (setting [3]) was determined as 45 nM. Still for that read-out and setting: to “p17_P46A: alanine variant of p17_2 polypeptide, SEQ ID NO: 60 (GPGISAFSPGRGVYDPETGTWYDAAWHLGELVWATYYDPETGTWEADWQRMLGQ; Selected sequence, p17_P46A)” belongs 5.6 nM; to “p17_R50A: alanine variant of p17_2 polypeptide, SEQ ID NO: 63 (GPGISAFSPGRGVYDPETGTWYDAAWHLGELVWATYYDPETGTWEPDWQAMLGQ; Selected sequence, p17_R50A)”, 7.8 nM; to “p17_W48A: alanine variant of p17_2 polypeptide, SEQ ID NO: 62 (GPGISAFSPGRGVYDPETGTWYDAAWHLGELVWATYYDPETGTWEPDAQRMLGQ; Selected sequence, p17_W48A)”, 200 nM.
